From article PMC8316464 come the findings set out here.

What all share (assay): SPR; Biacore S200; Bcl-2 family proteins immobilised on CM5 (amine coupling or His-Capture Kit); peptides and flag-tagged proteins as analytes, single-cycle kinetics, HBS-EP, 25 °C; 1:1 Langmuir model; absence of binding probed at 100 nM and 3 µM
(In general: In SPR one partner is held on a chip, and binding of the other changes the refractive index at the surface.)

The target in assay [1] is His-tagged human Mcl-1 (human) (UniProt Q07820).
His-tagged human Mcl-1 (human), sequence (Q07820 whole entry): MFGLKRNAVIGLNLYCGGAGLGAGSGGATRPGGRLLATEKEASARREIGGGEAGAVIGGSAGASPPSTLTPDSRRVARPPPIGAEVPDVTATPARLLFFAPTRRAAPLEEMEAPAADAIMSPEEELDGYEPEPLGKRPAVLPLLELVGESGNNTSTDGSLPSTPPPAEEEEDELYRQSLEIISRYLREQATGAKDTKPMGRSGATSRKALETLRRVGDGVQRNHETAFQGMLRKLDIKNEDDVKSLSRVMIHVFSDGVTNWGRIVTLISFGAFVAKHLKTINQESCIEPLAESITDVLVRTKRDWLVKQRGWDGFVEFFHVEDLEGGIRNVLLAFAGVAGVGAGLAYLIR
A further assay addresses Bcl-2 (human) (UniProt P10415).
A further assay has as its target Bcl-xL (human) (UniProt Q07817).

Bim BH3 peptide (25-mer, residues 141-165), sequence (peptide): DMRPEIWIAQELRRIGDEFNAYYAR
Bcl-xL (human), sequence (Q07817 whole entry): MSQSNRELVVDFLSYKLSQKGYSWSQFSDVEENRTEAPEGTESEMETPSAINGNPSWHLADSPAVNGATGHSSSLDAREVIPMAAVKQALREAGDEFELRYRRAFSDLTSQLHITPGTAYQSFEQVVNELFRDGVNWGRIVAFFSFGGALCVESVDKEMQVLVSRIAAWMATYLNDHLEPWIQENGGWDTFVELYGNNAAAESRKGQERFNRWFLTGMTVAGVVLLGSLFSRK

As usually defined, the Kd is a measure of binding affinity in units of concentration. Turning to Bim (A149I) peptide, the Kd worked out at 0.82 nM in assay [1], 115 nM in the assay with Bcl-2 (human) and 12.2 nM with Bcl-xL (human).
For the substance “Bim BH3 peptide (25-mer, residues 141-165)”, the Kd in assay [1] is 0.37 nM; with Bcl-2 (human), 14.2 nM; with Bcl-xL (human), 3.3 nM.
